In US20250339569A1 (3B PHARMACEUTICALS, published 2025):
Starred links: 1 amine or outer side, 2 acyl side, 3 side chain; linkers in the order of their positions; H or OH if unused. Positions of bridges follow the written chain, without caps; N, C: chain ends. Non-standard residues stand in square brackets, D forms with d. Groups on a side chain read outwards from the residue. Primed or numbered codes have the meaning given here. ξ: configuration not given here. *: point of attachment. Af3(HySuc) = 3-amino-L-phenylalanine acylated on the ring amine with 2-(3,6-dioxo-1,2,3,6-tetrahydropyridazin-4-yl)acetic acid, O=C(Cc1cc(=O)[nH][nH]c1=O)Nc1cccc(C[C@H](N[*:1])C(=O)[*:2])c1; af3(ac-glu) = lower case: 3-amino-D-phenylalanine, ring amine acylated with N-acetyl-D-glutamic acid, CC(=O)N[C@H](CCC(=O)[*:3])C(=O)Nc1cccc(C[C@@H](N[*:1])C(=O)[*:2])c1; af3(ac-asp) = lower case: 3-amino-D-phenylalanine, ring amine acylated with N-acetyl-D-aspartic acid, CC(=O)N[C@H](CC(=O)[*:3])C(=O)Nc1cccc(C[C@@H](N[*:1])C(=O)[*:2])c1; Af3(MSAc) = 3-aminophenylalanine with 2-methanesulfonylacetyl on the ring amine, CS(=O)(=O)CC(=O)Nc1cccc(C[C@H](N[*:1])C(=O)[*:2])c1; Af3(Iva) = 3-aminophenylalanine with isovaleryl on the ring amine, CC(C)CC(=O)Nc1cccc(C[C@H](N[*:1])C(=O)[*:2])c1; Af3(Ac-Asp) = 3-aminophenylalanine acylated on the ring amine with N-acetyl-aspartic acid; APAc″ = 2-(4-(amino)piperidin-1-yl)acetic acid, NC1CCN(CC(=O)*)CC1; DOTA = O=C(O)CN1CCN(CC(=O)O)CCN(CC(=O)*)CCN(CC(=O)O)CC1; ξTrp(7-Me) = Cc1cccc2c(CC(N)C(=O)O)c[nH]c12; Phe(4-I) = N[C@@H](Cc1ccc(I)cc1)C(=O)O; mXylylene = c1cc(C[*:1])cc(C[*:2])c1; Bta = N[C@@H](Cc1csc2ccccc12)C(=O)O; Propanoyl(3-OH) = O=C(CCO)*; APAc = not defined here; Ac5c = NC1(C(=O)O)CCCC1; Apr = not defined here; Dap = NC[C@H](N)C(=O)O; Ttds″ = Ttds spacer; Sar = CNCC(=O)O

B1: 3BP-4253 (peptide)
peptide: {DOTA}-DCE[dP]DWLTW[Dap]C-NH2
modifications: lactam 10-1; linker 2-11 via mXylylene
SMILES: CC(C)C[C@@H]1NC(=O)[C@H](Cc2c[nH]c3ccccc23)NC(=O)[C@H](CC(=O)O)NC(=O)[C@H]2CCCN2C(=O)[C@H](CCC(=O)O)NC(=O)[C@@H]2CSCc3cccc(c3)CSC[C@@H](C(N)=O)NC(=O)[C@H](CNC(=O)C[C@H](NC(=O)CN3CCN(CC(=O)O)CCN(CC(=O)O)CCN(CC(=O)O)CC3)C(=O)N2)NC(=O)[C@H](Cc2c[nH]c3ccccc23)NC(=O)[C@H]([C@@H](C)O)NC1=O
B2: 3BP-3058 (peptide)
peptide: Ac-VYCEGDWLTWAC-NH2
modifications: linker 3-12 via mXylylene
SMILES: CC(=O)N[C@H](C(=O)N[C@@H](Cc1ccc(O)cc1)C(=O)N[C@H]1CSCc2cccc(c2)CSC[C@@H](C(N)=O)NC(=O)[C@H](C)NC(=O)[C@H](Cc2c[nH]c3ccccc23)NC(=O)[C@H]([C@@H](C)O)NC(=O)[C@H](CC(C)C)NC(=O)[C@H](Cc2c[nH]c3ccccc23)NC(=O)[C@H](CC(=O)O)NC(=O)CNC(=O)[C@H](CCC(=O)O)NC1=O)C(C)C
B3: 3BP-3311 (peptide)
peptide: Ac-VYCE[Sar]D[Bta]LTWQC-NH2
modifications: linker 3-12 via mXylylene
SMILES: CC(=O)N[C@H](C(=O)N[C@@H](Cc1ccc(O)cc1)C(=O)N[C@H]1CSCc2cccc(c2)CSC[C@@H](C(N)=O)NC(=O)[C@H](CCC(N)=O)NC(=O)[C@H](Cc2c[nH]c3ccccc23)NC(=O)[C@H]([C@@H](C)O)NC(=O)[C@H](CC(C)C)NC(=O)[C@H](Cc2csc3ccccc23)NC(=O)[C@H](CC(=O)O)NC(=O)CN(C)C(=O)[C@H](CCC(=O)O)NC1=O)C(C)C
B4: 3BP-3313 (peptide)
peptide: Ac-VYCE[Sar]DWLTWAC-NH2
modifications: linker 3-12 via mXylylene
SMILES: CC(=O)N[C@H](C(=O)N[C@@H](Cc1ccc(O)cc1)C(=O)N[C@H]1CSCc2cccc(c2)CSC[C@@H](C(N)=O)NC(=O)[C@H](C)NC(=O)[C@H](Cc2c[nH]c3ccccc23)NC(=O)[C@H]([C@@H](C)O)NC(=O)[C@H](CC(C)C)NC(=O)[C@H](Cc2c[nH]c3ccccc23)NC(=O)[C@H](CC(=O)O)NC(=O)CN(C)C(=O)[C@H](CCC(=O)O)NC1=O)C(C)C
B5: 3BP-3934 (peptide)
peptide: {DOTA}-YCE[dP]KWLEWSC-NH2
modifications: linker 2-11 via mXylylene; lactam 5-8
SMILES: CC(C)C[C@@H]1NC(=O)[C@H](Cc2c[nH]c3ccccc23)NC(=O)[C@@H]2CCCCNC(=O)CC[C@H](NC1=O)C(=O)N[C@@H](Cc1c[nH]c3ccccc13)C(=O)N[C@@H](CO)C(=O)N[C@H](C(N)=O)CSCc1cccc(c1)CSC[C@H](NC(=O)[C@H](Cc1ccc(O)cc1)NC(=O)CN1CCN(CC(=O)O)CCN(CC(=O)O)CCN(CC(=O)O)CC1)C(=O)N[C@@H](CCC(=O)O)C(=O)N1CCC[C@@H]1C(=O)N2

What follows are binders tested against T1, Fc-fusion protein of human carbonic anhydrase IX (human, UniProt Q16790 38-414) (assay: SPR, captured hCAIX-Fc; t1/2 category B: 5.1-15.0 min).
Method: (§1) Stock solutions of test compounds were prepared by dissolving each compound in DMSO. DMSO stock solution were diluted 1:1000 in Running Buffer without DMSO. […] SPR binding analyses were performed in Single Cycle Kinetic (SCK) mode at 25° C.
(§2) For each test compound, SPR raw data in the form of resonance units (RU) were plotted as sensorgrams using the Biacore™ T200 control software. The signal from the blank sensorgram was subtracted from that of the test compound sensorgram (blank corrected). The blank corrected sensorgram was corrected for baseline drift by subtracting the sensorgram of a SCK run without the test compound (running buffer only). […] Raw data and fit results were imported as text files in IDBS. The pKD value (negative decadic logarithm of dissociation constant) was calculated in the IDBS excel template.

Row | Binder | t1/2 (half-life of the complex, SPR)
1 | {DOTA-APAc″}-VYCE[dP]D[Af3(HySuc)]LTWSC-NH2 (linker 3-12 via mXylylene) [3BP-4322] | 5.1 to 15 min
2 | {DOTA-APAc″}-VYCE[dP]D[Af3(MSAc)]LTWSC-NH2 (linker 3-12 via mXylylene) [3BP-4242] | 5.1 to 15 min
3 | {DOTA-APAc″}-VYCE[dP]D[Af3(Iva)]LTWSC-NH2 (linker 3-12 via mXylylene) [3BP-4236] | 5.1 to 15 min
4 | B1 | 5.1 to 15 min
5 | {DOTA-APAc″}-VYCE[dP]D[Af3(Ac-Asp)]LTWSC-NH2 (linker 3-12 via mXylylene) [3BP-4363] | 5.1 to 15 min
6 | {DOTA-APAc″}-VYCE[dP]D[af3(ac-asp)]LTWSC-NH2 (linker 3-12 via mXylylene; not fully specified) [3BP-4364] | 5.1 to 15 min
7 | {DOTA-APAc″}-VYCE[dP]D[af3(ac-glu)]LTWSC-NH2 (linker 3-12 via mXylylene; not fully specified) [3BP-4362] | 5.1 to 15 min
8 | {DOTA-APAc″}-VYCE[dP]D[ξTrp(7-Me)]LTWSC-NH2 (linker 3-12 via mXylylene; not fully specified) [3BP-4158] | 5.1 to 15 min

The binders below were run against T1, Fc-fusion protein of human carbonic … (assay: SPR, captured hCAIX-Fc; t1/2 category C: 2.1-5.0 min).
Method: as §1, §2

Row | Binder | t1/2 (half-life of the complex, SPR)
9 | {DOTA-APAc}-VYCE[dP]DW[Ac5c]TWSC-NH2 (linker 3-12 via mXylylene; reading uncertain) [3BP-3587] | 2.1 to 5 min
10 | {DOTA-APAc″}-V[Dap]CE[dP]DWLTWDC-NH2 (lactam 2-11; linker 3-12 via mXylylene) [3BP-4176] | 2.1 to 5 min
11 | B2 | 2.1 to 5 min
12 | {DOTA-Ttds″}-VYCEGDWLTWAC-NH2 (linker 3-12 via mXylylene; not fully specified) [3BP-3272] | 2.1 to 5 min
13 | {Propanoyl(3-OH)}-YCE[dP]DWLTWE([Apr-DOTA])C-NH2 (linker 2-11 via mXylylene; reading uncertain) [3BP-3842] | 2.1 to 5 min
14 | B3 | 2.1 to 5 min
15 | {DOTA}-YCE[dP]DWLTWSC-NH2 (linker 2-11 via mXylylene; also: ['indium complexed by DOTA']) [3BP-3906] | 2.1 to 5 min
16 | {DOTA-APAc″}-YCE[dP]DWLTWSC-NH2 (linker 2-11 via mXylylene) [3BP-3867] | 2.1 to 5 min
17 | {DOTA-Ttds″}-VYCE[Sar]DWLTWQC-NH2 (linker 3-12 via mXylylene; not fully specified) [3BP-3271] | 2.1 to 5 min
18 | B4 | 2.1 to 5 min
19 | B5 | 2.1 to 5 min
20 | {DOTA-APAc}-VYCE[dP]D[Phe(4-I)]LTWSC-NH2 (linker 3-12 via mXylylene; not fully specified; reading uncertain) [3BP-4134] | 2.1 to 5 min

What follows are binders tested against T1, Fc-fusion protein of human carbonic … (assay: SPR, captured hCAIX-Fc; pKD category A: >8.0).
Method: as §1, §2

Row | Binder | pKD
21 | {DOTA-APAc}-VYCE[dP]DW[Ac5c]TWSC-NH2 (linker 3-12 via mXylylene; reading uncertain) [3BP-3587] | > 8 pkd
22 | {DOTA-APAc″}-V[Dap]CE[dP]DWLTWDC-NH2 (lactam 2-11; linker 3-12 via mXylylene) [3BP-4176] | > 8 pkd
23 | {DOTA-APAc″}-VYCE[dP]D[Af3(HySuc)]LTWSC-NH2 (linker 3-12 via mXylylene) [3BP-4322] | > 8 pkd
24 | B2 | > 8 pkd
25 | {DOTA-Ttds″}-VYCEGDWLTWAC-NH2 (linker 3-12 via mXylylene; not fully specified) [3BP-3272] | > 8 pkd
26 | {DOTA-APAc″}-VYCE[dP]D[Af3(MSAc)]LTWSC-NH2 (linker 3-12 via mXylylene) [3BP-4242] | > 8 pkd
27 | {DOTA-APAc″}-VYCE[dP]D[Af3(Iva)]LTWSC-NH2 (linker 3-12 via mXylylene) [3BP-4236] | > 8 pkd
28 | B1 | > 8 pkd
29 | {Propanoyl(3-OH)}-YCE[dP]DWLTWE([Apr-DOTA])C-NH2 (linker 2-11 via mXylylene; reading uncertain) [3BP-3842] | > 8 pkd
30 | {DOTA-APAc″}-VYCE[dP]D[Af3(Ac-Asp)]LTWSC-NH2 (linker 3-12 via mXylylene) [3BP-4363] | > 8 pkd
31 | {DOTA-APAc″}-VYCE[dP]D[af3(ac-asp)]LTWSC-NH2 (linker 3-12 via mXylylene; not fully specified) [3BP-4364] | > 8 pkd
32 | B3 | > 8 pkd
33 | {DOTA}-YCE[dP]DWLTWSC-NH2 (linker 2-11 via mXylylene; also: ['indium complexed by DOTA']) [3BP-3906] | > 8 pkd
34 | {DOTA-APAc″}-YCE[dP]DWLTWSC-NH2 (linker 2-11 via mXylylene) [3BP-3867] | > 8 pkd
35 | {DOTA-Ttds″}-VYCE[Sar]DWLTWQC-NH2 (linker 3-12 via mXylylene; not fully specified) [3BP-3271] | > 8 pkd
36 | {DOTA-APAc″}-VYCE[dP]D[af3(ac-glu)]LTWSC-NH2 (linker 3-12 via mXylylene; not fully specified) [3BP-4362] | > 8 pkd
37 | B4 | > 8 pkd
38 | {DOTA-APAc″}-VYCE[dP]D[ξTrp(7-Me)]LTWSC-NH2 (linker 3-12 via mXylylene; not fully specified) [3BP-4158] | > 8 pkd
39 | B5 | > 8 pkd
40 | {DOTA-APAc}-VYCE[dP]D[Phe(4-I)]LTWSC-NH2 (linker 3-12 via mXylylene; not fully specified; reading uncertain) [3BP-4134] | > 8 pkd
